Data taken from paper PMC4058522, “Structural Basis for Phosphorylation-Dependent Recruitment of Tel2 to Hsp90 by Pih1” (Structure(London, England:1993), 2014).

Molecular target: T1, Tah1 (yeast, full-length) (yeast), P25638
T1 chain: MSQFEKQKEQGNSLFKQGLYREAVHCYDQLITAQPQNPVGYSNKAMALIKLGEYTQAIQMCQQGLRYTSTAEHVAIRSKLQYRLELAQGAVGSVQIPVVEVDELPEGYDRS
Test: cross-linking; lysine-specific crosslinker DMS, in solution, SDS-PAGE
Conditions: remark: other sources report otherwise

B1: Tah1 (yeast, full-length), P25638 1-111 (natural protein)
chain: MSQFEKQKEQGNSLFKQGLYREAVHCYDQLITAQPQNPVGYSNKAMALIKLGEYTQAIQMCQQGLRYTSTAEHVAIRSKLQYRLELAQGAVGSVQIPVVEVDELPEGYDRS
  stoichiometry N: 2
